Source: US20240398963A1 (priority 2021, published 2024)

Assay type: physicochemical
Conditions: 10 mM PBS buffer (pH=7.4), 37° C., 100 rpm shaker; free drug by HPLC, average release per day
Experimental: The drug release and stability experiments were run using the test compounds. About 2.5±1.0 mg/mL (with regard to conjugate) solution of each test compound was prepared with 10 mM PBS buffer (pH=7.4) in Millipore Amicon® Ultra-0.5 ml 30 k Ultrafiltration centrifuge tube. The solution was kept swelling for 1 h at room temperature and then placed in a shaker at 100 rpm, 37° C. for continuous experiment. At the same time point of each day, samples were centrifuged at 10000 rpm for 1 h. The aliquot was transferred to HPLC vial for analysis. An 0.4 mL of 10 mM PBS buffer was added into the centrifuge tube and continue the experiment.
For the HPLC analysis at each time point, the peak areas of all relevant peaks from the chromatograms were retrieved and the concentration of free drug was calculated. Average release of free drug was calculated based on the sum of free drug and numbers of experiment days. The computing equation is as below.
The sample degradation rate was calculated based on the concentration and degree of substitution (NMR) for conjugated drug with regard to the initial starting point of the experiment (at t=0). The computing equation is as below.

Compared with “Conjugate of CS (Chondroitin sulfate) and 2-aminopropyl (2-((6αS,6βR,7S,8αS,8βS,11αR,12αS,12βS)-6β-fluoro-7-hydroxy-6α,8α,10,10-tetramethyl-4-oxo-1,2,4,6α,6β,7,8,8α,11α,12,12α,12β-dodecahydro-8βH-naphtho[2′,1′:4,5]indeno[1,2-d][1,3]dioxol-8β-yl)-2-oxoethyl) carbonate [Example 53]”, “Conjugate of CS and 2-(2-(2-(2-aminoethoxy)ethoxy)ethoxy)ethyl (2-((6αS,6βR,7S,8αS,8βS,11αR,12αS,12βS)-6β-fluoro-7-hydroxy-6α,8α,10,10-tetramethyl-4-oxo-1,2,4,6α,6β,7,8,8α,11α,12,12α,12β-dodecahydro-8βH-naphtho[2′,1′:4,5]indeno[1,2-d][1,3]dioxol-8β-yl)-2-oxoethyl) carbonate [Example 55]” is lower in Release rate: 1.49 %/day for the first, 1.20 %/day for the second.

First: Conjugate of CS and 2-((6S,8S,9S,10R,11S,13S,14S,17R)-11,17-dihydroxy-6,10,13-trimethyl-3-oxo-6,7,8,9,10,11,12,13,14,15,16,17-dodecahydro-3H-cyclopenta[a]phenanthren-17-yl)-2-oxoethyl 4-aminobutanoate [Example 43]
Second: Conjugate of CS and 2-((6αS,6βR,7S,8αS,8βS,11αR,12αS,12βS)-6β-fluoro-7-hydroxy-6α,8α,10,10-tetramethyl-4-oxo-1,2,4,6α,6β,7,8,8α,11α,12,12α,12β-dodecahydro-8βH-naphtho[2′,1′:4,5]indeno[1,2-d][1,3]dioxol-8β-yl)-2-oxoethyl 2,5-diazabicyclo[2.2.1]heptane-2-carboxylate [Example 59]
The Release rate of the first is higher: 1.07 %/day for the first, 0.02 %/day for the second.

First: Conjugate of CS and 2-((6αS,6βR,7S,8αS,8βS,11αR,12αS,12βS)-6β-fluoro-7-hydroxy-6α,8α,10,10-tetramethyl-4-oxo-1,2,4,6α,6β,7,8,8α,11α,12,12α,12β-dodecahydro-8βH-naphtho[2′,1′:4,5]indeno[1,2-d][1,3]dioxol-8β-yl)-2-oxoethyl 7-azaspiro[3.5]nonane-2-carboxylate [Example 49]
Second: Conjugate of CS and 2-((6αS,6βR,7S,8αS,8βS,11αR,12αS,12βS)-6β-fluoro-7-hydroxy-6α,8α,10,10-tetramethyl-4-oxo-1,2,4,6α,6β,7,8,8α,11α,12,12α,12β-dodecahydro-8βH-naphtho[2′,1′:4,5]indeno[1,2-d][1,3]dioxol-8β-yl)-2-oxoethyl 14-amino-3,6,9,12-tetraoxatetradecanoate [Example 51]
The Release rate of the first is lower: 0.42 %/day for the first, 7.21 %/day for the second.

First: Conjugate of CS and 2-((6αS,6βR,7S,8αS,8βS,11αR,12αS,12βS)-6β-fluoro-7-hydroxy-6α,8α,10,10-tetramethyl-4-oxo-1,2,4,6α,6β,7,8,8α,11α,12,12α,12β-dodecahydro-8βH-naphtho[2′,1′:4,5]indeno[1,2-d][1,3]dioxol-8β-yl)-2-oxoethyl piperazine-1-carboxylate [Example 57]
Second: Conjugate of CS and 2-((8S,9R,10S,11S,13S,14S,16R,17R)-9-fluoro-11,17-dihydroxy-10,13,16-trimethyl-3-oxo-6,7,8,9,10,11,12,13,14,15,16,17-dodecahydro-3H-cyclopenta[a]phenanthren-17-yl)-2-oxoethyl 4-aminobutanoate [Example 45]
The Release rate of the first is lower: 0.23 %/day for the first, 0.40 %/day for the second.

First: Conjugate of CS and 2-((8S,9R,10S,11S,13S,14S,16S,17R)-9-fluoro-11,17-dihydroxy-10,13,16-trimethyl-3-oxo-6,7,8,9,10,11,12,13,14,15,16,17-dodecahydro-3H-cyclopenta[a]phenanthren-17-yl)-2-oxoethyl 4-aminobutanoate [Example 47]
Second: Conjugate of CS and 2-((8S,9S,10R,11S,13S,14S,17R)-11,17-dihydroxy-10,13-dimethyl-3-oxo-2,3,6,7,8,9,10,11,12,13,14,15,16,17-tetradecahydro-1H-cyclopenta[a]phenanthren-17-yl)-2-oxoethyl 4-aminobutanoate [Example 39]
The Release rate of the first is higher: 1.24 %/day for the first, 0.71 %/day for the second.

Going from “Conjugate of CS and 2-((8S,9S,10R,13S,14S,17R)-17-hydroxy-10,13-dimethyl-3,11-dioxo-2,3,6,7,8,9,10,11,12,13,14,15,16,17-tetradecahydro-1H-cyclopenta[a]phenanthren-17-yl)-2-oxoethyl 4-aminobutanoate [Example 41]” to “Conjugate of CS and 2-((8S,9S,10R,13S,14S,17R)-17-hydroxy-10,13-dimethyl-3,11-dioxo-6,7,8,9,10,11,12,13,14,15,16,17-dodecahydro-3H-cyclopenta[a]phenanthren-17-yl)-2-oxoethyl 4-aminobutanoate [Example 35]”, the Release rate falls from 1.79 %/day to 1.44 %/day.

First: Conjugate of CS and 4-aminobutyl (2-((6S,8S,9S,10R,11S,13S,14S,17R)-11,17-dihydroxy-6,10,13-trimethyl-3-oxo-6,7,8,9,10,11,12,13,14,15,16,17-dodecahydro-3H-cyclopenta[a]phenanthren-17-yl)-2-oxoethyl) carbonate [Example 69]
Second: Conjugate of CS and 4-aminobutyl (2-((8S,9R,10S,11S,13S,14S,16R,17R)-9-fluoro-11,17-dihydroxy-10,13,16-trimethyl-3-oxo-6,7,8,9,10,11,12,13,14,15,16,17-dodecahydro-3H-cyclopenta[a]phenanthren-17-yl)-2-oxoethyl) carbonate [Example 71]
The Release rate of the first is higher: 4.62 %/day for the first, 1.55 %/day for the second.

First: Conjugate of CS and 4-aminobutyl (2-((8S,9R,10S,11S,13S,14S,16S,17R)-9-fluoro-11,17-dihydroxy-10,13,16-trimethyl-3-oxo-6,7,8,9,10,11,12,13,14,15,16,17-dodecahydro-3H-cyclopenta[a]phenanthren-17-yl)-2-oxoethyl) carbonate [Example 73]
Second: Conjugate of CS and 4-aminobutyl (2-((8S,9S,10R,11S,13S,14S,17R)-11,17-dihydroxy-10,13-dimethyl-3-oxo-2,3,6,7,8,9,10,11,12,13,14,15,16,17-tetradecahydro-1H-cyclopenta[a]phenanthren-17-yl)-2-oxoethyl) carbonate [Example 65]
The Release rate of the first is higher: 13.44 %/day for the first, 7.52 %/day for the second.

Compared with “Conjugate of CS and 4-aminobutyl (2-((8S,9S,10R,11S,13S,14S,17R)-11,17-dihydroxy-10,13-dimethyl-3-oxo-6,7,8,9,10,11,12,13,14,15,16,17-dodecahydro-3H-cyclopenta[a]phenanthren-17-yl)-2-oxoethyl) carbonate [Example 63]”, “Conjugate of CS and 4-aminobutyl (2-((8S,9S,10R,13S,14S,17R)-17-hydroxy-10,13-dimethyl-3,11-dioxo-2,3,6,7,8,9,10,11,12,13,14,15,16,17-tetradecahydro-1H-cyclopenta[a]phenanthren-17-yl)-2-oxoethyl) carbonate [Example 67]” is higher in Release rate: 0.05 %/day for the first, 5.91 %/day for the second.

First: Conjugate of CS and 4-aminobutyl (2-((8S,9S,10R,13S,14S,17R)-17-hydroxy-10,13-dimethyl-3,11-dioxo-6,7,8,9,10,11,12,13,14,15,16,17-dodecahydro-3H-cyclopenta[a]phenanthren-17-yl)-2-oxoethyl) carbonate [Example 61]
Second: Conjugate of HA and 2-((2S,6αS,6βR,7S,8αS,8βS,11αR,12αS,12βS)-2,6β-difluoro-7-hydroxy-6α,8α,10,10-tetramethyl-4-oxo-1,2,4,6α,6β,7,8,8α,11α,12,12α,12β-dodecahydro-8βH-naphtho[2′,1′:4,5]indeno[1,2-d][1,3]dioxol-8β-yl)-2-oxoethyl 6-aminohexanoate [Example 23]
The Release rate of the first is higher: 7.26 %/day for the first, 1.01 %/day for the second.

First: Conjugate of HA and 2-((6S,8S,9S,10R,11S,13S,14S,17R)-11,17-dihydroxy-6,10,13-trimethyl-3-oxo-6,7,8,9,10,11,12,13,14,15,16,17-dodecahydro-3H-cyclopenta[a]phenanthren-17-yl)-2-oxoethyl 4-aminobutanoate [Example 42]
Second: Conjugate of HA and 2-((6S,8S,9S,10R,11S,13S,14S,17R)-11,17-dihydroxy-6,10,13-trimethyl-3-oxo-6,7,8,9,10,11,12,13,14,15,16,17-dodecahydro-3H-cyclopenta[a]phenanthren-17-yl)-2-oxoethyl 5-aminopentanoate [Example 78]
The Release rate of the first is lower: 2.88 %/day for the first, 8.92 %/day for the second.

First: Conjugate of HA and 2-((6S,8S,9S,10R,11S,13S,14S,17R)-11,17-dihydroxy-6,10,13-trimethyl-3-oxo-6,7,8,9,10,11,12,13,14,15,16,17-dodecahydro-3H-cyclopenta[a]phenanthren-17-yl)-2-oxoethyl 6-aminohexanoate [Example 82]
Second: Conjugate of HA and 2-((6αS,6βR,7S,8αS,8βS,11αR,12αS,12βS)-6β-fluoro-7-hydroxy-6α,8α,10,10-tetramethyl-4-oxo-1,2,4,6α,6β,7,8,8α,11α,12,12α,12β-dodecahydro-8βH-naphtho[2′,1′:4,5]indeno[1,2-d][1,3]dioxol-8β-yl)-2-oxoethyl 2,5-diazabicyclo[2.2.1]heptane-2-carboxylate [Example 58]
The Release rate of the first is higher: 2.30 %/day for the first, 0.25 %/day for the second.
